Data taken from patent US20230002507A1 (Novartis, published 2023).

What was measured:
Human FXI activated = Human FXI activated (human, UniProt P03951 19-387; P03951 388-625); test: cell-based or functional assay
Human FXI zymogen = Human FXI zymogen (human, UniProt P03951 19-625); test: cell-based or functional assay
Sequence of Human FXI zymogen (P03951 19-625 C226S limits assumed): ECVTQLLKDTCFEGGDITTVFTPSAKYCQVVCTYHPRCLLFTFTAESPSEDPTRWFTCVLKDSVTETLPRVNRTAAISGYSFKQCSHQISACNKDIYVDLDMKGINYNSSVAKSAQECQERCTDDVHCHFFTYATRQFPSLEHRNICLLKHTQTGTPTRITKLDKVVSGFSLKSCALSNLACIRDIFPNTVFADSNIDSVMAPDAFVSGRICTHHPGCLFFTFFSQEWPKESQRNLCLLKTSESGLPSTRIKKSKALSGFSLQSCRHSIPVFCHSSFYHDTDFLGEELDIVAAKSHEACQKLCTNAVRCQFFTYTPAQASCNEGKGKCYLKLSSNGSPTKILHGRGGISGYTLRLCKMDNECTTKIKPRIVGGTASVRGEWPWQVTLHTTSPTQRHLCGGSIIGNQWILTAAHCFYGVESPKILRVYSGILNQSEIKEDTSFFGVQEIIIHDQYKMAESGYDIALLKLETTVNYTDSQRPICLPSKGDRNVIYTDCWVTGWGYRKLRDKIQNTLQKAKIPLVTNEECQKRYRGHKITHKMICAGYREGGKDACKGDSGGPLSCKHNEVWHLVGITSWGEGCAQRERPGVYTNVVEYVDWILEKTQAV

Sequence of Human FXI activated (P03951 19-387 C226S limits assumed, chain 1 of 2): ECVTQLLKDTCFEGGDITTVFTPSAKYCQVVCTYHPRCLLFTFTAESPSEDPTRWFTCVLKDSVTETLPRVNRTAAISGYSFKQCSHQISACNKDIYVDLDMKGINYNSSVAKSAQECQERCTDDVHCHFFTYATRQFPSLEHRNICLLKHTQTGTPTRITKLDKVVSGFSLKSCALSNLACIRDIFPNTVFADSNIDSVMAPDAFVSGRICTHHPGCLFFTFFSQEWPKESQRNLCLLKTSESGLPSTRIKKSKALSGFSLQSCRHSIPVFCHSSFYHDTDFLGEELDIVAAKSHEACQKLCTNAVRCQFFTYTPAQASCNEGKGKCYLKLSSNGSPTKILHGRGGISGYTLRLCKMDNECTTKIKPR
Sequence of Human FXI activated (P03951 388-625 limits assumed, chain 2 of 2): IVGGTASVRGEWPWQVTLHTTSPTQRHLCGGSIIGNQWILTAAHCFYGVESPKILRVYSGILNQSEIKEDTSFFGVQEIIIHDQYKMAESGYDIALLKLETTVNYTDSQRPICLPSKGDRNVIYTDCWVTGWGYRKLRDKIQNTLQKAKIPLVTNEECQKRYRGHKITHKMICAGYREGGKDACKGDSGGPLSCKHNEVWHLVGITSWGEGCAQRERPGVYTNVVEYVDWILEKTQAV

B1: NOV1401-IgG (antibody, V domains shown)
VH: QVQLLESGGGLVQPGGSLRLSCAASGFTFSTAAMSWVRQAPGKGLEWVSGISGSGSSTYYADSVKGRFTISRDNSKNTLYLQMNSLRAEDTAVYYCARELSYLYSGYYFDYWGQGTLVTVSS
VL: QSVLTQPPSASGTPGQRVTISCSGSSSNIGSNDVSWYQQLPGTAPKLLIYKNYNRPSGVPDRFSGSKSGTSASLAISGLQSEDEADYYCSAWDQRQFDVVFGGGTKLTVLG
IC50, inhibition of FXIa enzymatic activity (cleavage of the fluorescent peptide substrate BS-2494) (Human FXI activated): ~0.16 nM | IC50, inhibition of the enzymatic activity of full length human FXIa (cleavage of a fluorescently labelled peptide) (Human FXI activated): 0.16 nM | IC50, thrombin generation assay (TGA) in pooled human plasma (Human FXI zymogen): 24 nM
